Measured values as given in patent US7829301B2, “Screening assays for binding antagonists of the AMD-associated variant of factor H (H384)” (The University of Manchester, priority 2006, dated 2010).
Changes are numbered by the printed parent chain.

B1: FHCCP6-8(H384): recombinant protein of Factor H CCPs 6-8, H384 allotype, with N-terminal non-authentic glycine (SEQ ID NO: 1) (protein, listed as Homo sapiens)
chain: MGTLKPCDYPDIKHGGLYHENMRRPYFPVAVGKYYSYYCDEHFETPSGSYWDHIHCTQDGWSPAVPCLRKCYFPYLENGYNQNHGRKFVQGKSIDVACHPGYALPKAQTTVTCMENGWSPTPRCIRVKTCSKSSIDIENGFISESQYTYALKEKAKYQCKLGYVTADGETSGSITCGKDGWSAQPTCI
modifications: VARIANT (1)...(188) Protein sequence of the FHCCP6-8 (H384) construct
B2: FHCCP6-8(Y384): recombinant Factor H CCPs 6-8, Y384 variant obtained by site-directed mutagenesis (SEQ ID NO: 3) (protein, listed as Homo sapiens)
chain: B1 chain with H84Y
modifications: VARIANT (1)...(188) FHCCP6-8 (Y384 allotype of mature Factor H)

How the values were obtained:
[1] = Heparin affinity chromatography on HiTrap Heparin column; assay type: binding; conditions: pH 7.3; linear salt gradient 130 mM to 1 M NaCl
Experimental: The heparin-binding properties of H384 and Y384 variants of FHCCP6-8 were compared to full-length human factor H by affinity chromatography on a HiTrap Heparin column (Amersham Biosciences) or a ‘home-made’ column in which 20 mg 4IS was coupled to 1.5-ml CNBr-activated Sepharose (Sigma) in 0.1 M NaHCO3, 0.5 M NaCl, pH 8.3 using the manufacturer's protocol. The 1-ml HiTrap column and ˜1-ml 4IS-column were equilibrated in 20 mM HEPES, 130 mM NaCl, 1 mM EDTA, pH 7.3. Protein (200 μg recombinant proteins; 100 μg full-length factor H) was loaded onto the columns (in 1 ml equilibration buffer) and any unbound material was removed with 5 column volumes of the same buffer and collected in 1-ml fractions. Protein was eluted from the columns using a linear salt gradient of 130 mM to 1 M NaCl over 20 min by mixing 20 mM HEPES, 1 M NaCl, 1 mM EDTA, pH 7.3 with the equilibration buffer at a flow rate of 1 ml/min.
This approach was also used to determine the relative heparin-binding activities of K370A, R386A and K387A mutants, where 200 μg of protein was loaded individually onto the HiTrap column.

[2] = Microtitre plate assay: biotinylated proteins binding to unfractionated heparin immobilized on EpranEx plates
Experimental: The heparin/HS/DS-binding activities of the FHCCP6-8(H384) and FHCCP6-8(Y384) variants (using biotinylated-FHCCP6-8 constructs), and in some cases full-length Factor H (detected with an antibody), were compared using an assay where the glycosaminoglycans (GAGs) were immobilized on allylamine-coated EpranEx plates (Mahoney et al (2004) Anal. Biochem. 330, 123-129), kindly supplied by Plasso Technology Ltd., Sheffield, UK. […]
The following GAG preparations were analyzed: unfractionated heparins corresponding to the 2nd, 4th and 5th International Standards (denoted here as 2IS, 4IS and 5IS, respectively (Mulloy et al. (2000) Thromb. Haemost. 52, 148-153)); enoxaparin, dalteparin and LMr heparin from Sigma (Cat. No. H3400); selectively desulfated heparins prepared from 2IS heparin as described in Mulloy et al. (1994) Carbohydr. […]
In the case of the biotinylated FHCCP6-8(H384) and FHCCP6-8(Y384) constructs, bound material was detected by adding 200 μl/well of a 1:10,000 dilution of ExtrAvidin alkaline phosphatase (Sigma, Cat. No. E-2636) for 30 minutes. […]
In these plate assays all data points were determined in quadruplicate from each of two independent experiments.

Linearized pcDNA3-vector = assay: Protein/DNA binding assay (agarose gel migration); conditions: 5 μg protein, 30 ng DNA, 30 minutes at 37° C.
Experimental: Plasmid pcDNA3 DNA (Invitrogen) was linearized using EcoR1 (Fermentas) in a buffer accompanying the enzyme.
Linearized pcDNA3-vector (30 ng) was incubated with 5 μg of FHCCP(H384), FHCCP6-8(Y384) or full length FH (positive control) in the binding buffer (as described above) in a total volume of 20 μl for 30 minutes at 37° C. The negative control contained no protein. DNA loading buffer (0.25% (w/v) bromophenol blue, 0.25% (w/v) xylene cyanol, 30% (v/v) glycerol in deionized water) was added (1 μl) and the samples were run on an agarose gel (0.8% (w/v), Cambrex) containing ethidium bromide (Sigma) and visualized by UV. Changes in DNA migration served as a means of evaluating the presence of DNA-protein complexes.

Molecule	NaCl concentration at elution from HiTrap heparin affinity column [1] [mM NaCl]	binding to immobilized unfractionated heparins compared to FHCCP6-8(Y384) ([2]; 2IS, 4IS and 5IS)	DNA-protein complex formation (DNA migration in agarose gel) (Linearized pcDNA3-vector)	binding to 4IS heparin relative to FHCCP6-8(H384) ([2]; heparin bound to allylamine-coated surface, biotinylated proteins)
B1	340	more of the FHCCP6-8(H384) protein bound	retained DNA in its protein-complex form more efficiently	–
B2	390	–	migrated mainly in the non-complexed form	bind less well
